Kd data for two molecules are collected here from paper PMC4008586 (PLoS ONE, 2014).

In general, Kd refers to the equilibrium constant for the complex coming apart. Read a high Kd as lower affinity.

This assay addresses Bim-BH3 peptide. The assay is described as follows: SPR; Biacore assay; who was immobilised and the conditions are not stated. The settings on record: both partners purified. Background: In SPR one partner is held on a chip, and binding of the other changes the refractive index at the surface.

B1: hMcl-1(171–327), wild type (domain or fragment, human, UniProt Q07820 171-327, looked up)
chain: EDELYRQSLEIISRYLREQATGAKDTKPMGRSGATSRKALETLRRVGDGVQRNHETAFQGMLRKLDIKNEDDVKSLSRVMIHVFSDGVTNWGRIVTLISFGAFVAKHLKTINQESCIEPLAESITDVLVRTKRDWLVKQRGWDGFVEFFHVEDLEGG
notes: also called myeloid cell leukemia-1
Molecule B1 came in with a Kd of roughly 0.06 nM.

B2: hMcl-1(171–327) Cys 286 → Ser (domain or fragment, human, UniProt Q07820 171-327, looked up)
chain: EDELYRQSLEIISRYLREQATGAKDTKPMGRSGATSRKALETLRRVGDGVQRNHETAFQGMLRKLDIKNEDDVKSLSRVMIHVFSDGVTNWGRIVTLISFGAFVAKHLKTINQESSIEPLAESITDVLVRTKRDWLVKQRGWDGFVEFFHVEDLEGG
notes: seven nonnative residues LHHHHHH at the C-terminus; The NMR samples were uniformly 13C,15N-labeled (or U-15N, 5% 13C); also called mutant; mutant Cys 286 → Ser
The molecule B2 displayed a dissociation constant Kd of roughly 0.06 nM.
